T1: beta-catenin
T1 chain: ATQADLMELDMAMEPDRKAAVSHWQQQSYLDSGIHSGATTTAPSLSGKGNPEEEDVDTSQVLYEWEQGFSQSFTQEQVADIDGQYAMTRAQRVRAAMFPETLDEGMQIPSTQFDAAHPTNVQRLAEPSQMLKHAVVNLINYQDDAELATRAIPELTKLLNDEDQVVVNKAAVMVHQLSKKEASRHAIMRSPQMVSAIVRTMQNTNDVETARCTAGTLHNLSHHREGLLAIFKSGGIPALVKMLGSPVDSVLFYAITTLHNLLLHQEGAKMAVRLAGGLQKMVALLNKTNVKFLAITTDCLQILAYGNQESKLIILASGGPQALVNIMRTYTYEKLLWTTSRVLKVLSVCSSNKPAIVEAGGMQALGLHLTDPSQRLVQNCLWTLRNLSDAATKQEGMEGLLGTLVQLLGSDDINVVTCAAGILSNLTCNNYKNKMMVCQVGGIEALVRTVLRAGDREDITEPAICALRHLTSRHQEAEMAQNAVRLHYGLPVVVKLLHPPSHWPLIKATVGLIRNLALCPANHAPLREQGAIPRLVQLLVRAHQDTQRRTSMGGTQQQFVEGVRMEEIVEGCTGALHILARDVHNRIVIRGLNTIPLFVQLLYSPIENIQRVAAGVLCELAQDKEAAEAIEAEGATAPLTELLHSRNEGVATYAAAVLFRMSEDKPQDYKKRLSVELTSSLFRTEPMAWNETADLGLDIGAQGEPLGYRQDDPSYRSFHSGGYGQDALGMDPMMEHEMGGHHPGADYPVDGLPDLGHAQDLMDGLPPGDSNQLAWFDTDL

T2: 3×FLAG-WHSC1 (Wolf-Hirschhorn syndrome candidate-1, FLAG-tagged) (human, UniProt O96028 1-1365)
T2 construct: Expressed in 293T cells by transfection; also called FLAG-tagged WHSC1; pCAGGS-n3FH-WHSC1; not shown: 3×FLAG tag from the pCAGGS-n3FH / n3FC vector
T2 sequence: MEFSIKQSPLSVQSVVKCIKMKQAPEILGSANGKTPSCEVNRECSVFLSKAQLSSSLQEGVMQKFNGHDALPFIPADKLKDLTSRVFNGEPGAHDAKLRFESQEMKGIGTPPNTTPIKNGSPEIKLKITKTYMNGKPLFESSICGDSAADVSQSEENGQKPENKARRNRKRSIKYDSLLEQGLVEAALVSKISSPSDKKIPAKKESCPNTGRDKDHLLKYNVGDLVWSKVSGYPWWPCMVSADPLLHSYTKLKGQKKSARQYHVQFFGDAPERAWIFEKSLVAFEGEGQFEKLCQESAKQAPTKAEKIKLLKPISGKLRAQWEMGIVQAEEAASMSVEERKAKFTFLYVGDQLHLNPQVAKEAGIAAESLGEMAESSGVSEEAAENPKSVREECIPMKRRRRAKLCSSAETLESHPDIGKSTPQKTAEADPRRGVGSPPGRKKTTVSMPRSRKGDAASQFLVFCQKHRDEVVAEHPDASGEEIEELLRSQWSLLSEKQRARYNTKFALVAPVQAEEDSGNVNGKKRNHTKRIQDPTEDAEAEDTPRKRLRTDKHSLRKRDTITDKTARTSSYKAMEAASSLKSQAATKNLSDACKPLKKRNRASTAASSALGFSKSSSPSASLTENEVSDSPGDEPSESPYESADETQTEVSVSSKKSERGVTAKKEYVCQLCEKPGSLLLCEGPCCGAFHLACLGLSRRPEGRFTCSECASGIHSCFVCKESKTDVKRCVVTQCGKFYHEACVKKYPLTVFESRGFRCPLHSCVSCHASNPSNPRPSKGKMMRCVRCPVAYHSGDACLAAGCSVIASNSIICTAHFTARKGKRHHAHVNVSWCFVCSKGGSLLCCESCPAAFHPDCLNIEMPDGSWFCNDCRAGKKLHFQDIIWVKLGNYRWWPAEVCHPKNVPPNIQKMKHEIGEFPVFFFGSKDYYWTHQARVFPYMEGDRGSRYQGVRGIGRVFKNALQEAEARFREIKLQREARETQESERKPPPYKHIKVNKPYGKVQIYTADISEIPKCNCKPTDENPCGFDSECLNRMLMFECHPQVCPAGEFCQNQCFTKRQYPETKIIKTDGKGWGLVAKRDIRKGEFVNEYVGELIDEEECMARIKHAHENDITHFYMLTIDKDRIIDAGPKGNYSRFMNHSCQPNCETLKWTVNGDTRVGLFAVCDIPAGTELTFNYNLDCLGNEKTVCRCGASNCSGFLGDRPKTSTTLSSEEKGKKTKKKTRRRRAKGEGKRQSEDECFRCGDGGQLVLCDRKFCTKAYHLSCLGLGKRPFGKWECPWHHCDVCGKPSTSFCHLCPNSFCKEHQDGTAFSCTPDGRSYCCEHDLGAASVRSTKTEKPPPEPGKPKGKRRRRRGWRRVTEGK


Assays:
beta-catenin = target: T1, beta-catenin
[1] = target: T2, 3×FLAG-WHSC1 (Wolf-Hirschhorn syndrome …); test: anti-HA immunoprecipitation from nuclear and cytoplasmic fractions of 293T cells co-transfected with HA-beta-catenin and 3×FLAG-WHSC1, then immunoblot
Method: [FIG. 5B-D](B) Silver staining pattern of interacting proteins with WHSC1. pCAGGS-n3FH-WHSC1 vectors were transfected into 293T cells. After 48 h, interacting protein partners of WHSC1 were enriched by anti-FLAG immunoprecipitation, separated by SDS-PAGE and silver stained. The different bands compared with a control lane were cut out and identified by mass spectrometry. Western blot was performed to confirm the expression of FLAG-WHSC1 using anti-FLAG antibody. (C) Immunoprecipitants from lysates of 293T cells using anti-FLAG M2 agarose (SIGMA) were immunoblotted with anti-FLAG (WHSC1), IQGAP1, TIAM1, AKT2 and beta-catenin antibodies. (D). HA-beta-catenin and 3×FLAG-WHSC1 vectores were transfected into 293T cells, and cell lysates were fractionated by NE-PER nuclear and cytoplasmic ex-traction kit (Thermo Sciecntific). Immunoprecipitants from fractionated lysates using anti-HA agarose (SIGMA) were immunoblotted with anti-FLAG and HA antibodies. UHRF1 was used as a marker of a nuclear protein, and Rho A was used a marker of a cytoplasmic protein.

binding result [1] | Binder | in vitro methyltransferase assay (beta-catenin)
 | WHSC1 (expressed from the pCAGGS-WHSC1 vector) (protein) MEFSIKQSPLSVQSVVKCIKMKQAPEILGSANGKTPSCEVNRECSVFLSKAQLSSSLQEGVMQKFNGHDALPFIPADKLKDLTSRVFNGEPGAHDAKLRFESQEMKGIGTPPNTTPIKNGSPEIKLKITKTYMNGKPLFESSICGDSAADVSQSEENGQKPENKARRNRKRSIKYDSLLEQGLVEAALVSKISSPSDKKIPAKKESCPNTGRDKDHLLKYNVGDLVWSKVSGYPWWPCMVSADPLLHSYTKLKGQKKSARQYHVQFFGDAPERAWIFEKSLVAFEGEGQFEKLCQESAKQAPTKAEKIKLLKPISGKLRAQWEMGIVQAEEAASMSVEERKAKFTFLYVGDQLHLNPQVAKEAGIAAESLGEMAESSGVSEEAAENPKSVREECIPMKRRRRAKLCSSAETLESHPDIGKSTPQKTAEADPRRGVGSPPGRKKTTVSMPRSRKGDAASQFLVFCQKHRDEVVAEHPDASGEEIEELLRSQWSLLSEKQRARYNTKFALVAPVQAEEDSGNVNGKKRNHTKRIQDPTEDAEAEDTPRKRLRTDKHSLRKRDTITDKTARTSSYKAMEAASSLKSQAATKNLSDACKPLKKRNRASTAASSALGFSKSSSPSASLTENEVSDSPGDEPSESPYESADETQTEVSVSSKKSERGVTAKKEYVCQLCEKPGSLLLCEGPCCGAFHLACLGLSRRPEGRFTCSECASGIHSCFVCKESKTDVKRCVVTQCGKFYHEACVKKYPLTVFESRGFRCPLHSCVSCHASNPSNPRPSKGKMMRCVRCPVAYHSGDACLAAGCSVIASNSIICTAHFTARKGKRHHAHVNVSWCFVCSKGGSLLCCESCPAAFHPDCLNIEMPDGSWFCNDCRAGKKLHFQDIIWVKLGNYRWWPAEVCHPKNVPPNIQKMKHEIGEFPVFFFGSKDYYWTHQARVFPYMEGDRGSRYQGVRGIGRVFKNALQEAEARFREIKLQREARETQESERKPPPYKHIKVNKPYGKVQIYTADISEIPKCNCKPTDENPCGFDSECLNRMLMFECHPQVCPAGEFCQNQCFTKRQYPETKIIKTDGKGWGLVAKRDIRKGEFVNEYVGELIDEEECMARIKHAHENDITHFYMLTIDKDRIIDAGPKGNYSRFMNHSCQPNCETLKWTVNGDTRVGLFAVCDIPAGTELTFNYNLDCLGNEKTVCRCGASNCSGFLGDRPKTSTTLSSEEKGKKTKKKTRRRRAKGEGKRQSEDECFRCGDGGQLVLCDRKFCTKAYHLSCLGLGKRPFGKWECPWHHCDVCGKPSTSFCHLCPNSFCKEHQDGTAFSCTPDGRSYCCEHDLGAASVRSTKTEKPPPEPGKPKGKRRRRRGWRRVTEGK | no positive signals were observed (data not shown)
binds | HA-beta-catenin (other, Co-transfected with 3×FLAG-WHSC1 into 293T cells and precipitated with anti-HA agarose from nuclear and cytoplasmic fractions; also called HA-tagged beta-catenin; not shown: HA tag) MATQADLMELDMAMEPDRKAAVSHWQQQSYLDSGIHSGATTTAPSLSGKGNPEEEDVDTSQVLYEWEQGFSQSFTQEQVADIDGQYAMTRAQRVRAAMFPETLDEGMQIPSTQFDAAHPTNVQRLAEPSQMLKHAVVNLINYQDDAELATRAIPELTKLLNDEDQVVVNKAAVMVHQLSKKEASRHAIMRSPQMVSAIVRTMQNTNDVETARCTAGTLHNLSHHREGLLAIFKSGGIPALVKMLGSPVDSVLFYAITTLHNLLLHQEGAKMAVRLAGGLQKMVALLNKTNVKFLAITTDCLQILAYGNQESKLIILASGGPQALVNIMRTYTYEKLLWTTSRVLKVLSVCSSNKPAIVEAGGMQALGLHLTDPSQRLVQNCLWTLRNLSDAATKQEGMEGLLGTLVQLLGSDDINVVTCAAGILSNLTCNNYKNKMMVCQVGGIEALVRTVLRAGDREDITEPAICALRHLTSRHQEAEMAQNAVRLHYGLPVVVKLLHPPSHWPLIKATVGLIRNLALCPANHAPLREQGAIPRLVQLLVRAHQDTQRRTSMGGTQQQFVEGVRMEEIVEGCTGALHILARDVHNRIVIRGLNTIPLFVQLLYSPIENIQRVAAGVLCELAQDKEAAEAIEAEGATAPLTELLHSRNEGVATYAAAVLFRMSEDKPQDYKKRLSVELTSSLFRTEPMAWNETADLGLDIGAQGEPLGYRQDDPSYRSFHSGGYGQDALGMDPMMEHEMGGHHPGADYPVDGLPDLGHAQDLMDGLPPGDSNQLAWFDTDL | 

— US20130137748A1 (ONCOTHERAPY SCIENCE, published 2013)
